Target: T1, RORα1 (NR1F1) (human, UniProt P35398 1-523)
T1 sequence: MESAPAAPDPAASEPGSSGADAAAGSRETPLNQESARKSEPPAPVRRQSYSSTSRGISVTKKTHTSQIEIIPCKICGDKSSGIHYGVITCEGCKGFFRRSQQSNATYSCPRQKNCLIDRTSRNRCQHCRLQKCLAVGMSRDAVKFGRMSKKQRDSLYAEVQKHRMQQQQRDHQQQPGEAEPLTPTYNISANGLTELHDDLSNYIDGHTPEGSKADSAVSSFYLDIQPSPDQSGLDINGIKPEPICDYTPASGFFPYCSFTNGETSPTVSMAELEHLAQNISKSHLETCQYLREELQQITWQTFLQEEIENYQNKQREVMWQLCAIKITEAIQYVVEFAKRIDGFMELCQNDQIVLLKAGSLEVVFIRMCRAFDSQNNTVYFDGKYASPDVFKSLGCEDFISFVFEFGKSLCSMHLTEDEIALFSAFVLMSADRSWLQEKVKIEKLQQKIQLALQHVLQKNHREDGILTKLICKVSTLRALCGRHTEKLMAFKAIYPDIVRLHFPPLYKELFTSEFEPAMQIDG
Assay: EMSA; 15 mM Tris-HCl pH 7.5, 50 mM KCl, 15 mM NaCl, 1 mM MgCl2, 0.03 mM EDTA, 1 mM DTT, 7% glycerol, 50 ng poly(dI-dC), 50 ng unspecific ss oligonucleotides, 0.15 ng
Settings: protein: ivt; label: 32P (Klenow fill-in, [α-32P]-dATP) when used as probe

B1: SPARC-RORE (dsDNA)
DNA 1: CGGTAGGCTGTTCTGGGTCATCCCTCCAGG
DNA 2: ACGTCCTGGAGGGATGACCCAGAACAGCCT
B1: binds.

Reference: PMC3144224, “Control of Gene Expression by the Retinoic Acid-Related Orphan Receptor Alpha in HepG2 Human Hepatoma Cells”
